T1: human interferon alpha receptor 1 (IFNAR1), on cells (human, UniProt P17181 28-557)
T1 construct: whole, on cells; For PBMCs, monocytes and THP-1 cells it names only the cells
T1 sequence (looked up): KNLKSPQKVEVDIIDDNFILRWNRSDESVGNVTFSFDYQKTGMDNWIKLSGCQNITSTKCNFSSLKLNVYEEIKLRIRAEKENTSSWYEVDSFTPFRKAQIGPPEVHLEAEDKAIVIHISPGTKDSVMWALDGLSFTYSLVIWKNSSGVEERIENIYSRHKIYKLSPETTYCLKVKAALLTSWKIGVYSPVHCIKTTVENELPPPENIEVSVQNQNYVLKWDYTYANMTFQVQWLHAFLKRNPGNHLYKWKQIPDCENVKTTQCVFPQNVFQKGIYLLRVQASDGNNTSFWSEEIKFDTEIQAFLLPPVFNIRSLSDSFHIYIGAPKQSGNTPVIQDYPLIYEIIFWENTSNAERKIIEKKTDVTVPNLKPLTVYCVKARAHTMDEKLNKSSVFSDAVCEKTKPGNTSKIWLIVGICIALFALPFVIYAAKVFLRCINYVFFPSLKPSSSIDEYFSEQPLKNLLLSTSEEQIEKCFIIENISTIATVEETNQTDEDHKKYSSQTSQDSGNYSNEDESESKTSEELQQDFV

T2: ovalbumin (UniProt P01012 2-386)
T2 construct: Control protein; also called soluble ovalbumin
T2 sequence (looked up): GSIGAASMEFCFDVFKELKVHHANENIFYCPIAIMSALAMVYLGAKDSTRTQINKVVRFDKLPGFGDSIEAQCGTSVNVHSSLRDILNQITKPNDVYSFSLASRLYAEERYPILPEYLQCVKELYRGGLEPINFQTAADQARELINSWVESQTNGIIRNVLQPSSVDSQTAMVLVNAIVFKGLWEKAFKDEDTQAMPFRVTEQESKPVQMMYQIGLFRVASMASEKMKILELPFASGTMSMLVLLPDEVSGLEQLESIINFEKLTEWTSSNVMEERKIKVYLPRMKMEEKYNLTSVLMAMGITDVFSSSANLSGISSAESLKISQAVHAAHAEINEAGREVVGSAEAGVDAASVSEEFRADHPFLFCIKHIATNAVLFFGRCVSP


Columns and labels:
[1] = molecular target: human interferon alpha receptor 1 (IFNAR1), on cells (human) (UniProt P17181); test: cell-based or functional assay
[2] = molecular target: T1, human interferon alpha receptor 1 …; test: IHC of human monocytes with biotinylated antibody
Protocol: Human Monocytes: A cell suspension was smeared/spotted directly onto slides. The slides were allowed to dry overnight and then soaked in Acetone for 10 min and allowed to air dry. Prior to use, slides were dipped into 10% neutral buffered formalin for 10 secs and washed 3× in buffer (1×TBS with 0.01% Tween20).
Slide staining: After washing in buffer, slides were treated to quench endogenous peroxidases by treatment with a solution of Glucose Oxidase (1 U/ml, Sigma G0543), B-D(+) Glucose (10 mM, Sigma G5250), Sodium Azide (1 mM, Sigma, S8032) for 1 hour at room temperature. Slides were then rinsed in wash buffer (1×TBS with 0.01% Tween 20). Slides were placed in a protein block solution (1×PBS pH7.2, 0.5% casein(N-Z amine, Sigma CO626), 1% BSA (Sigma A7906), 1.5% Normal Goat serum (Jackson Labs #005-000-001) for 30 min at room temperature. Biotinylated antibody (see above) was applied to the slides by dilution into the protein block solution. Incubation of the slides with the biotinylated antibody was performed at room temperature for 2 hours. Slides were rinsed 3× in wash buffer (1×TBS, 0.01% Tween 20). Antibody detection was performed using a Vectastain Kit (Vector Laboratories). Slides were washed and counterstained with hematoxylin. Slides were dehydrated and mounted with coverslips prior to viewing.

[3] = molecular target: T2, ovalbumin; test: BIAcore, ovalbumin control, antibody at 333 nM, reference-subtracted
Protocol: All experiments were performed on a BIAcore 3000 instrument (BIAcore, Inc., Uppsala, Sweden). […] Separately, a blank surface was also prepared on each chip using the identical protocol, minus the protein. This blank surface was used as a reference cell throughout the experiment, and served to correct for both non-specific binding and certain housekeeping artifacts.

[4] = molecular target: T1, human interferon alpha receptor 1 …; test: cell-based or functional assay
[5] = molecular target: T1, human interferon alpha receptor 1 …; test: europium-labelled antibody binding to HEK 293F cells, Kd from binding curves (GraphPad Prism)
Protocol: Methods: 200,000 HEK 293F cells were seeded in a round bottom, 96-well plate using 50 μL RPMI 1640 media supplemented with 10% FBS. […] 25 μL of europium conjugated, serially diluted antibody was then added to appropriate wells and cells and antibodies were agitated gently at room temperature for 1-2 hours. After binding incubation, 150 μL of cell media was added to all wells and plates were spun at 1200 rpm for 5 minutes at room temperature. Plates were quickly decanted and 250 μL cell media was added to all wells. Spins and washes were repeated for a total of 3 washes. Cells were then resuspended in 100 μL cell media. 50 μL of resuspended cells were transferred to 200 μL of DELPHIA enhancement solution (PerkinElmer) in a DELPHIA yellow microtiter plate and Europium emission was measured on a Victor2 Multilabel reader (PerkinElmer). Signal was measured in cps and Kd values and Bₘₐₓ values were generated using GraphPad Prism 4 analysis software.

[6] = molecular target: T1, human interferon alpha receptor 1 …; test: cell-based or functional assay; remark: listed apart in the source
[7] = molecular target: T3, FcγRIIIA variant 158V (high affinity) with Flag tag (UniProt P08637 17-208); test: ELISA, antibody coated on the plate at 50 µg/ml, Flag-tagged FcγRIIIA titrated, biotin anti-Flag and avidin-HRP
T3 construct: also called FcγRIIIA-10 158V; not shown: Flag tag
Protocol: (§1) The plate was washed one hour later and incubated with biotin conjugated anti Flag antibody (Sigma) at 2 μg/ml. After washing 25 μl of HRP conjugated Avidin was added to each well. The unbound materials were removed by washing one hour after incubation. The binding signal was detected with the substrate TMB.

[8] = molecular target: T4, FcγRIIIA variant 158F (low affinity) with Flag tag (UniProt P08637 17-208, limits assumed); test: as above
T4 construct: not shown: Flag tag
Protocol: as §1

[9] = molecular target: T2, ovalbumin; test: BIAcore, control surface, FcγRI injected at 20 nM, reference-subtracted
Protocol: Methods: All experiments were performed on a BIAcore 3000 instrument (BIAcore, Inc., Uppsala, Sweden). In a typical experiment 1 μM solutions of 9D4 IgGs were used to immobilize anywhere from ˜7000 RUs−˜11,000 RUs of protein onto CM5 sensor chip surfaces using a standard amino coupling protocol (BIAcore, Inc.). Separately, a blank surface was also prepared on each chip using the identical protocol, minus the protein. This blank surface was used as a reference cell throughout the experiment, and served to correct for both non-specific binding and certain housekeeping artifacts.

T4 sequence (P08637 17-208 limits assumed, change not shown): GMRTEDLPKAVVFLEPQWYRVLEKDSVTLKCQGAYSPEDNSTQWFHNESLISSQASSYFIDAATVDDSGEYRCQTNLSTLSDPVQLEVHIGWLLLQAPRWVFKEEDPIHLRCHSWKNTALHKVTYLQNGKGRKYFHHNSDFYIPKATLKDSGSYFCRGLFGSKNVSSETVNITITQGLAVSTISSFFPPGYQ
T3 sequence (P08637 other isoform, or with tags, fused parts or gaps mutant): as the sequence (P08637 17-208 limits assumed, change not shown) above, with F160V counted along it

Molecule | binding result [3] | IC50, HiL3 ISRE-luciferase reporter assay, neutralization of Human Leukocyte IFN [4] [µg/mL] | IC50, HiL3 ISRE-luciferase reporter assay, neutralization of IFNα 2b [4] [µg/mL] | IC50, HiL3 ISRE-luciferase reporter assay, neutralization of IFNα10 [4] [µg/mL] | IC50, HiL3 ISRE-luciferase reporter assay, neutralization of IFNβ [4] [µg/mL] | IC50, HiL3 ISRE-luciferase reporter assay, neutralization of IFNω [4] [µg/mL] | IC50, luciferase reporter assay, Leukocyte IFN signaling [4] [nM] | IC50, suppression of CD38 expression on cells stimulated with leukocyte-IFN [4] [µg/mL] | IC50, suppression of CD86 expression on cells stimulated with leukocyte-IFN [4] [µg/mL] | IC50, suppression of CD123 expression on cells stimulated with leukocyte-IFN [4] [µg/mL] | Kd [5] [nM] | further results
anti-IFNAR1 antibody MDX-1333 | – | – | – | – | – | – | – | – | – | – | – | IC50, HiL3 ISRE-luciferase reporter assay, neutralization of Human Leukocyte IFN [1]: 1.12 µg/mL; IC50, HiL3 ISRE-luciferase reporter assay, neutralization of IFNα 2b [1]: 0.000646 µg/mL; IC50, HiL3 ISRE-luciferase reporter assay, neutralization of IFNα10 [1]: 0.0988 µg/mL; IC50, HiL3 ISRE-luciferase reporter assay, neutralization of IFNβ [1]: 19 µg/mL; IC50, HiL3 ISRE-luciferase reporter assay, neutralization of IFNω [1]: 5.32 µg/mL; IC50, luciferase reporter assay, Leukocyte IFN signaling [1]: 0.04 nM
anti-IFNAR1 antibody 4G5 (antibody, V domains shown, Biotinylated for IHC) VH: QVQLQQWGAGLLKPSETLSLTCAVYGGSFSNYYWSWIRQPPGKGLEWIGEIILSGSTNYNPSLKSRVTISVDTSKNQFSLNLTSVTAADTAVYYCARESKWGYYFDSWGQGTLVTVSS VL: AIQLTQSPSSLSASVGDRVTITCRATQDISIALVWYQQKPGKAPELLIYDASGLGSGVPSRFSGSGSGTDFTLTISSLQPEDFATYYCQQFNSYPYTFGQGTKLEIK | – | – | – | – | – | – | – | – | – | – | – | binding result [2]: binds
anti-IFNAR1 antibody 9D4 (parental, unmodified) (antibody, V domains shown, Whole IgG with unmodified Fc; the TM variant was engineered on human IgG1 and IgG1 isotype controls were used; Biotinylated in some ELISAs; also called 9D4-WT; 9D4WT) VH: EVQLVQSGAEVKKPGESLKISCKGSGYIFTNYWIAWVRQMPGKGLESMGIIYPGDSDIRYSPSFQGQVTISADKSITTAYLQWSSLKASDTAMYYCARHDIEGFDYWGRGTLVTVSS VL: EIVLTQSPGTLSLSPGERATLSCRASQSVSSSFFAWYQQKPGQAPRLLIYGASSRATGIPDRLSGSGSGTDFTLTITRLEPEDFAVYYCQQYDSSAITFGQGTRLEIK | no binding | 0.021 | 0.00279 | 0.00834 | 0.74 | 0.0101 | 0.01 | 0.0043 | 0.02 | 0.007 | 0.06 | –
modified anti-IFNAR1 antibody 9D4-DM (Double Mutant) (antibody, human IgG4, V domains shown, Biotinylated in some ELISAs) VH: EVQLVQSGAEVKKPGESLKISCKGSGYIFTNYWIAWVRQMPGKGLESMGIIYPGDSDIRYSPSFQGQVTISADKSITTAYLQWSSLKASDTAMYYCARHDIEGFDYWGRGTLVTVSS VL: EIVLTQSPGTLSLSPGERATLSCRASQSVSSSFFAWYQQKPGQAPRLLIYGASSRATGIPDRLSGSGSGTDFTLTITRLEPEDFAVYYCQQYDSSAITFGQGTRLEIK | – | – | – | – | – | – | 0.01 | 0.04 | 0.02 | 0.021 | 0.06 | –
modified anti-IFNAR1 antibody 9D4-TM (Triple Mutant) (antibody, Labelled with europium, Alexa647 or biotin in some assays; also called 9D-TM; Alexa647-9D4-TM; copies: 2 + 2) VH: EVQLVQSGAEVKKPGESLKISCKGSGYIFTNYWIAWVRQMPGKGLESMGIIYPGDSDIRYSPSFQGQVTISADKSITTAYLQWSSLKASDTAMYYCARHDIEGFDYWGRGTLVTVSSASTKGPSVFPLAPSSKSTSGGTAALGCLVKDYFPEPVTVSWNSGALTSGVHTFPAVLQSSGLYSLSSVVTVPSSSLGTQTYICNVNHKPSNTKVDKRVEPKSCDKTHTCPPCPAPEFEGGPSVFLFPPKPKDTLMISRTPEVTCVVVDVSHEDPEVKFNWYVDGVEVHNAKTKPREEQYNSTYRVVSVLTVLHQDWLNGKEYKCKVSNKALPASIEKTISKAKGQPREPQVYTLPPSREEMTKNQVSLTCLVKGFYPSDIAVEWESNGQPENNYKTTPPVLDSDGSFFLYSKLTVDKSRWQQGNVFSCSVMHEALHNHYTQKSLSLSPGK VL: EIVLTQSPGTLSLSPGERATLSCRASQSVSSSFFAWYQQKPGQAPRLLIYGASSRATGIPDRLSGSGSGTDFTLTITRLEPEDFAVYYCQQYDSSAITFGQGTRLEIKRTVAAPSVFIFPPSDEQLKSGTASVVCLLNNFYPREAKVQWKVDNALQSGNSQESVTEQDSKDSTYSLSSTLTLSKADYEKHKVYACEVTHQGLSSPVTKSFNRGEC | no binding | 0.0212 | 0.000828 | 0.00429 | 0.261 | 0.0142 | 0.02 | 0.025 | 0.026 | 0.01 | 0.03 | IC50, PIL-5 ISRE luciferase reporter assay, neutralization of Type I interferons in SLE patient plasma [4]: 0.04 nM; IC50, inhibition of SLE plasma induced CD38 and CD123 expression on human monocytes (flow cytometry) [4]: 0.02 to 0.06 nM; IC50, luciferase reporter assay, inhibition of IFN-α1 activity [6]: 0.004 nM; IC50, luciferase reporter assay, inhibition of IFN-α2b activity [6]: 0.07 nM; IC50, luciferase reporter assay, inhibition of IFN-α4b activity [6]: 0.02 nM; IC50, luciferase reporter assay, inhibition of IFN-α6 activity [6]: 0.04 nM; IC50, luciferase reporter assay, inhibition of IFN-α7 activity [6]: 0.04 nM; IC50, luciferase reporter assay, inhibition of IFN-α8 activity [6]: 0.03 nM; IC50, luciferase reporter assay, inhibition of IFN-α10 activity [6]: 0.01 nM; IC50, luciferase reporter assay, inhibition of IFN-α14 activity [6]: 0.02 nM; IC50, luciferase reporter assay, inhibition of IFN-α16 activity [6]: 0.02 nM; IC50, luciferase reporter assay, inhibition of IFN-α17 activity [6]: 0.04 nM; IC50, luciferase reporter assay, inhibition of IFN-α21 activity [6]: 0.01 nM; IC50, luciferase reporter assay, inhibition of IFN-β1 activity [6]: 6.8 nM; IC50, luciferase reporter assay, inhibition of IFN-ω activity [6]: 0.1 nM; IC50, luciferase reporter assay, inhibition of Leukocyte Interferon activity [6]: 0.01 nM; binding result [7]: no binding (tested: 4.7 Log ng/ml (50 µg/ml by paragraph 350)); binding result [8]: no binding (tested: 4.7 Log ng/ml (50 µg/ml by paragraph 350))
human FcγRI (CD64) (receptor, UniProt P12314 16-288, looked up) QVDTTKAVITLQPPWVSVFQEETVTLHCEVLHLPGSSSTQWFLNGTATQTSTPSYRITSASVNDSGEYRCQRGLSGRSDPIQLEIHRGWLLLQVSSRVFTEGEPLALRCHAWKDKLVYNVLYYRNGKAFKFFHWNSNLTILKTNISHNGTYHCSGMGKHRYTSAGISVTVKELFPAPVLNASVTSPLLEGNLVTLSCETKLLLQRPGLQLYFSFYMGSKTLRGRNTSSEYQILTARREDSGLYWCEAATEDGNVLKRSPELELQVLGLQLPTP | – | – | – | – | – | – | – | – | – | – | – | binding result [9]: no binding

Source: patent US20110059078A1 (AstraZeneca / MedImmune, published 2011)
